System: MS2 coat protein
Assay: apparent KD of MS2 coat protein; designed switch direction (-1 OFF switch, 1 ON switch): -1; higher = weaker reporter binding
Procedure, shortened: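 Designed RNA switches sharing common flanks were transcribed on Illumina chips by stalled E. coli RNA polymerase. They were titrated with SNAP-549-labelled MS2 coat protein, from 0.7 or 1.5 nM doubling to 3 µM, in Tris-HCl pH 7.5 buffer with KCl, MgCl2, BSA, DTT, tRNA and Tween-20. Titrations ran without input, with 200 uM small-molecule ligand, or with an oligonucleotide input. The apparent KD of each design is the median over its clusters, after curve-fitting of normalised cluster fluorescence.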

[1] = Eterna round: R95, input ligand: microRNA oligo, concentration not stated
[2] = input ligand: microRNA oligo, concentration not stated
[3] = Eterna round: R95, input ligand: FMN 200 uM
[4] = Eterna round: R95, input ligand: none

Sequence	apparent KD of MS2 coat protein [1]	apparent KD of MS2 coat protein (input ligand: FMN 200 uM)	apparent KD of MS2 coat protein [2]	apparent KD of MS2 coat protein (input ligand: none)	apparent KD of MS2 coat protein [3]	apparent KD of MS2 coat protein [4]
UGGUGUGAAGGAUAUACAUGAGGAUCACCCAUGUAUGAGGUGUGUGUUGAGGUGGAGGGUAGAAGGUCAGGUGG [JR_Exclusion3_Sub013] (puzzle: Exclusion 3)	32.2 nM	–	–	–	–	–
UGUACUAACACGAUAGUGUUAGUACUAUAAGCUUGUGUUACAUGAGGAUCACCCAUGUCCUCAUAAGCUCGUCUUGA [Mat - Sensor v3 - Turn-off var 2 - D93] (Eterna round: R96, puzzle: Sensor v3, turn-off variant 2)	–	36.8 nM	472 nM	38.9 nM	–	–
UGUACUAACACGAUAGUGUUAGUACUAUAAGCUUGUGUUACAUGAGGAUCACCCAUGUCCUCAUAAGCUCGUCUUGA [Mat - Sensor v3 - Turn-off var 2 - D93] (puzzle: Sensor v3, turn-off variant 2)	712 nM	–	–	–	32.3 nM	31.2 nM
UGUACUAUGCGAGCUGACUUGCGUAGUGCAGCAGGUGUUACAUGAGGAUCACCCAUGUCCUCAUUUGCUCGUCUUAU [SL-sv3-2.04 JL mod] (puzzle: Sensor v3, turn-off variant 2)	231 nM	–	–	–	289 nM	200 nM
UGUGCGUAUGUGAGGAUAUGCUGGUCCUUGGAUCAGCAGAAGGCACAUGAGGAUCACCCAUGUGGUGUCGUACG [salish99_Bmod_Ex4_008] (puzzle: Brourd's mod of Exclusion 4)	96.9 nM	–	–	–	–	–
UGUUAAGCAGGAUAUACGUUGUCCUAUUAAACUAGUGAAGGACAUGAGGAUCACCCAUGUAGAAGGGCUAAGCG [Eternabot (L2) Solution 70] (Eterna round: R97, puzzle: Exclusion 2)	–	85.2 nM	–	83.7 nM	–	–
UGUUGUCGCGCAGGAUAUGAGGAUCACCCAUAUAAAGGAUAUGAAAAGAAGGUUCUGAGGAUCACCCAGAAGGGCGGGACAACU [pwkr exNG2 2xF5 2xFMN.18] (Eterna round: R96, puzzle: Exclusion NG 2)	–	347 nM	49 nM	62.6 nM	–	–
UGUUGUCGCGUAGGAUAUGAGGAUCACCCAUAUAGAGGAUAUGAAAAGAAGGCUCUGAGGAUUACCCAGAAGGACGGGACAACU [pwkr exNG2 2xF5 2xFMN.22] (Eterna round: R96, puzzle: Exclusion NG 2)	–	1180 nM	132 nM	155 nM	–	–
UGUUGUUACGCAGGAUAUGAGGAUCACCCAUAUCAGGAUAUCGAAAGAGAACUUCUGAGGAUCACCCAGAAGGGCGGGUUAACA [pwkr exNG2 2xF5 2xFMN.38] (Eterna round: R96, puzzle: Exclusion NG 2)	–	16.9 nM	13.6 nM	21.2 nM	–	–
UGUUGUUACGCAGGAUAUUGUCAACAGGCAAUAGGAUAUCCGAAAGGAGAAGGAUCGCCAACAGGCGAGAAGGGCGGGUUAACA [pwkr exNG2 2xF7 2xFMN.1] (Eterna round: R96, puzzle: Exclusion NG 2)	–	133 nM	1580 nM	2630 nM	–	–
UGUUGUUACGUAGGAUAUGGCCAACAGGCCCUAGGAUAUGCGAAAGCAGAAGGAGCGCCAACAGGCGAGAAGGACGGGUUAACA [pwkr exNG2 2xF7 2xFMN.15] (Eterna round: R96, puzzle: Exclusion NG 2)	–	50.2 nM	78.2 nM	60.5 nM	–	–
UGUUGUUCAGGAUAUGAUGUAUAAUACAUGAGGAUCACCCAUGUAGAUCCUGAAUUAGCGUCAGAAGGGAAUGUUG [salish99_ex5_r4_104] (Eterna round: R97, puzzle: Exclusion 5)	–	18 nM	–	21.1 nM	–	–
UGUUGUUCAGGAUAUGAUGUAUUAUACAUGAGGAUCACCCAUGUGGGUCCUGAUUUGGCGUCAGAAGGGAAUGUUG [salish99_ex5_r4_110] (Eterna round: R97, puzzle: Exclusion 5)	–	205 nM	–	150 nM	–	–
UGUUGUUGAUAGGAUAUACUUGUAGGAGUAGGAGUAGAAGGAUCUACAUGAGGAUCACCCAUGUAGGAGUGAGA [JR_E6_Sub003] (puzzle: Exclusion 6)	16.6 nM	–	–	–	18.2 nM	15.7 nM
UGUUGUUGAUAGGAUAUACUUGUAGGAGUUGUAGUAGAAGGAUCUACAUGAGGAUCACCCAUGUAGGAGUGAGU [JR_E6_Sub004] (puzzle: Exclusion 6)	15.6 nM	–	–	–	–	–
UUAAACGGAGGAUAUACAUUUUUUUUAUUAUCCUCAUUAAAACAUGAGGAUCACCCAUGUAGAAGGCCGAAAUU [Mat - Exclusion 2 - Mod of Hog - D86] (puzzle: Exclusion 2)	91.5 nM	–	–	–	–	–
UUAAAUCAUGUAGGAUAUGCGUGGCGAAGCUAUGCAGAAGGACAUGAGGAUCACCCAUGUUCUAGCGUCUGCGAACAGAUGCAA [Mat - Exclusion NG 1 - Mod of JL - D1] (Eterna round: R96, puzzle: Exclusion NG 1)	–	120 nM	12.2 nM	16.9 nM	–	–

Sequence	apparent KD of MS2 coat protein [1]	apparent KD of MS2 coat protein (input ligand: FMN 200 uM)	apparent KD of MS2 coat protein [2]	apparent KD of MS2 coat protein (input ligand: none)	apparent KD of MS2 coat protein [3]	apparent KD of MS2 coat protein [4]
UUAAAUCAUGUAGGAUAUGCGUGGCGAAGCUAUGCAGAAGGACAUGAGGAUCACCCAUGUUCUUGCGUCUGCGUACAGAUGCAA [JL ENG1 1.09] (Eterna round: R96, puzzle: Exclusion NG 1)	–	118 nM	26 nM	37.2 nM	–	–
UUAACAUGCUGGUGAUCAUACAUGAGGAUCACCCAUGUAACAAGCUUUUUGCUCGUCUUAAUUUAAUUGAUUACUAG [Stov1/8-A1] (Eterna round: R97, puzzle: Sensor, turn-off variant 1)	–	120 nM	–	134 nM	–	–
UUAAUGACUGUGAGGAUAUCGGAUAGAUAGAUAUUUGAGAAGGUACAUGAGGAUCACCCAUGUGUGAUUAGAGA [Brourd's EX4 #66] (Eterna round: R97, puzzle: Brourd's mod of Exclusion 4)	–	246 nM	–	253 nM	–	–
UUAAUGAUUGUGAGGAUAUUUCAUAGAUAGAUAUUAGAGAAGGUACAUGAGGAUCACCCAUGUGUGAUUAGAGA [Brourd's EX4 #71] (Eterna round: R97, puzzle: Brourd's mod of Exclusion 4)	–	89.7 nM	–	93.5 nM	–	–
UUAAUGUCAGGAUAUGCUUAAUAUAUUAUAUUAUAAUAUAUACAUGAGGAUCACCCAUGUAGAAGGGACAUUAU [LRO-Excl2-03-Fireball XL5] (Eterna round: R97, puzzle: Exclusion 2)	–	26.8 nM	–	38.2 nM	–	–
UUAAUGUGAGGAUAUCAGGUGUGCUAGCGUACUGGUACAUCUGAGAAGGCACAUGAGGAUCACCCAUGUUCCUG [JL-ex4-3.28 Brourd mod] (puzzle: Exclusion 4)	20.6 nM	–	–	–	–	–
UUAAUUCGGAUUCUUGAAAUACAUGAGGAUCACCCAUGUUCACAGGAUAUUGAUUAUGUUAGUAACAAGAAGGGUGUAACAUAU [JR_ExcNG3_Sub036] (Eterna round: R96, puzzle: Exclusion NG 3)	–	87.1 nM	31 nM	28.7 nM	–	–
UUACGACAUGAGGAUCACCCAUGUUAGGAUAUGUGGCGAGAGCGCUAGCCUCGGGCCAACAGAAGGAAUAGGGC [Eternabot (L2) Solution 35] (Eterna round: R97, puzzle: Exclusion 1)	–	53.4 nM	–	58.5 nM	–	–
UUACUAUGUCGCCUAAUAGCUUUUUGCUCGUCUUAUAUUACAUGAGGAUCACCCAUGUAGAUCAUGUGGCGUGACCU [JL ViennaUCT Maridi mod 4] (puzzle: Sensor v3, turn-off variant 2)	39.1 nM	–	–	–	246 nM	217 nM
UUACUAUGUCGCUUAAUAGCUUUUUGCUCGUCUUAUAUUACAUGAGGAUCACCCAUGUAGAUCAUGUGGCGUGACCU [JL ViennaUCT Maridi mod 6] (puzzle: Sensor v3, turn-off variant 2)	36 nM	–	–	–	247 nM	237 nM
UUAGAUUAUGAAGGAUAUGGAUCUUAUUAUUAACCAGAAGGUCAACUCAACAUGAGGAUCACCCAUGUAUAAAGGGUAUUAGUU (Eterna round: R96, puzzle: Exclusion NG 1)	–	–	109 nM	–	–	–
UUAUACGUUGAGGAUAUGCGACUGUUUUAAGUUGUAGAAGGCGAUACAUGAGGAUCACCCAUGUUUAUGGGCAU [LRO-Ex6-12] (puzzle: Exclusion 6)	169 nM	–	–	–	–	–
UUAUAUAGGUAGGAUAUCGAUUUUAAUUAAUUUCGAGAAGGGUCAACAUGAGGAUCACCCAUGUCAGCAUGUAU [LRO-Excl6-05-Rocketman] (Eterna round: R97, puzzle: Exclusion 6)	–	45.6 nM	–	51.4 nM	–	–
UUAUAUAGUGUGAGGAUAUGCUGGUCCUUGGAUCAGCAGAAGGCACAUGAGGAUCACCCAUGUAAUAUAUUAUU [JL bmx4 3.07] (puzzle: Brourd's mod of Exclusion 4)	58.2 nM	–	–	–	–	–
UUAUUAAGUGUGAGGAUAUGCUGGUCCUUGGAUCAGCAGAAGGCACAUGAGGAUCACCCAUGUACUUUAUUUUA [JL bmx4 3.04] (puzzle: Brourd's mod of Exclusion 4)	15.5 nM	–	–	–	–	–
UUAUUAAUUAAUAUUAUAAGAUCACAUGAGGAUCACCCAUGUCAGGAUAUCAGCUCGUUUAGAGCUGAGAAGGGACAAAUAAUA [ExNG3/15-B2] (Eterna round: R96, puzzle: Exclusion NG 3)	–	118 nM	187 nM	189 nM	–	–
UUAUUAUAUGUAGGAUAUGCAUAUUAUUAUUAUGCAGAAGGACAUGAGGAUCACCCAUGUAUGUUGUUAUUAUAUAUUAUAUAU [Title] (Eterna round: R96, puzzle: Exclusion NG 1)	–	–	20.6 nM	–	–	–

Reference: the supplement of paper PMC9170038
